B1: Mdh2-MGA3: NAD-dependent methanol dehydrogenase encoded by chromosomal gene mdh2 of B. methanolicus MGA3, SEQ ID NO. 2 (protein)
chain: MTNTQSAFFMPSVNLFGAGSVNEVGTRLADLGVKKALLVTDAGLHGLGLSEKISSIIRAAGVEVSIFPKAEPNPTDKNVAEGLEAYNAENCDSIVTLGGGSSHDAGKAIALVAANGGKIHDYEGVDVSKEPMVPLIAINTTAGTGSELTKFTIITDTERKVKMAIVDKHVTPTLSINDPELMVGMPPSLTAATGLDALTHAIEAYVSTGATPITDALAIQAIKIISKYLPRAVANGKDIEAREQMAFAQSLAGMAFNNAGLGYVHAIAHQLGGFYNFPHGVCNAVLLPYVCRFNLISKVERYAEIAAFLGENVDGLSTYDAAEKAIKAIERMAKDLNIPKGFKELGAKEEDIETLAKNAMKDACALTNPRKPKLEEVIQIIKNAM
modifications: Bacillus methanolicus MGA3
B2: Mdh-MGA3: previously reported plasmid pBM19-encoded NAD-dependent methanol dehydrogenase of B. methanolicus MGA3, SEQ ID NO. 8 (protein)
chain: MTTNFFIPPASVIGRGAVKEVGTRLKQIGAKKALIVTDAFLHSTGLSEEVAKNIREAGVDVAIFPKAQPDPADTQVHEGVDVFKQENCDSLVSIGGGSSHDTAKAIGLVAANGGRINDYQGVNSVEKPVVPVVAITTTAGTGSETTSLAVITDSARKVKMPVIDEKITPTVAIVDPELMVKKPAGLTIATGMDALSHAIEAYVAKGATPVTDAFAIQAMKLINEYLPKAVANGEDIEAREKMAYAQYMAGVAFNNGGLGLVHSISHQVGGVYKLQHGICNSVNMPHVCAFNLIAKTERFAHIAELLGENVAGLSTAAAAERAIVALERINKSFGIPSGYAEMGVKEEDIELLAKNAYEDVCTQSNPRVPTVQDIAQIIKNAM
modifications: Bacillus methanolicus MGA3
B3: Mdh3-MGA3: NAD-dependent methanol dehydrogenase encoded by chromosomal gene mdh3 of B. methanolicus MGA3, SEQ ID NO. 4 (protein)
chain: MKNTQSAFYMPSVNLFGAGSVNEVGTRLAGLGVKKALLVTDAGLHSLGLSEKIAGIIREAGVEVAIFPKAEPNPTDKNVAEGLEAYNAENCDSIVTLGGGSSHDAGKAIALVAANGGTIHDYEGVDVSKKPMVPLIAINTTAGTGSELTKFTIITDTERKVKMAIVDKHVTPTLSINDPELMVGMPPSLTAATGLDALTHAIEAYVSTGATPITDALAIQAIKIISKYLPRAVANGKDIEAREQMAFAQSLAGMAFNNAGLGYVHAIAHQLGGFYNFPHGVCNAILLPHVCRFNLISKVERYAEIAAFLGENVDGLSTYEAAEKAIKAIERMARDLNIPKGFKELGAKEEDIETLAKNAMNDACALTNPRKPKLEEVIQIIKNAM
modifications: Bacillus methanolicus MGA3

Legend:
[1] = Formaldehyde reductase assay of purified MDH proteins; type: biochemical; conditions: 45° C., formaldehyde reductase activity; for Km: read-out: Km, variable substrate Formaldehyde
Protocol: (§1) Alcohol dehydrogenase activities were measured spectrophotometrically essentially as described previously (Hektor, Kloosterman et al. (2002) Chem 277(49): 46966-46973) and the reaction mixture contained: 100 mM Glycine-KOH pH 9.5 (unless otherwise stated), 5 mM MgSO4, 0.5 mM NAD^+ and 500 mM alcohol (methanol, ethanol, propanol, 1,3-propanediol, or butanol). NAD^+ was substituted with equal concentrations of NADP^+, FMN^+, and FAD^+, when indicated. The reaction mixture for measurements of formaldehyde reductase activity contained: 50 mM Potassium-phosphate buffer pH=6.7, 0.15 mM NADH, 1 mM DTT and 11.6 mM (0.1-116 mM) formaldehyde. The assay components were mixed in the cuvette and pre-warmed to 45° C., unless otherwise stated. The reactions were started by addition of 5-40 μg of the purified MDH proteins, and the production of NADH was monitored at 340 nm for 4 minutes. One unit of MDH activity was defined as the amount of enzyme needed to produce 1 μmol NADH per minute under the conditions described above. Purified Act (0.1-40 μg) or NudF (20 μg) proteins were added to the reaction mixtures as indicated in the text.
(§2) The purified MDH and Act proteins (20 μg) were used in the kinetic experiments performing the methanol dehydrogenase and the formaldehyde dehydrogenase assays essentially as described above. […] For determination of the Km for NAD^+ (Km,NAD+) and Vmax, the methanol concentration was kept constant at a saturating level (500 mM), while the concentration of NAD^+ was varied (5-1000 μM). […] Act (20 μg) was added to the reaction mixtures for determination of Kμ,MεOH and Vmax values in the presence of this activator, as indicated in the text. In general, the slopes of activity versus time were linear in the measured period (data not shown). Km and Vmax values were calculated by using nonlinear regression with the Microsoft Excel solver-tool to fit the measured data to the Michaelis-Menten equation, as described previously (Jakobsen et al., (2009) Appl Environ Microbiol 75(3): 652-661). The values obtained from the regression were then compared to the values obtained from Lineweaver-Burk and Hanes-Woolf plots to ensure that the global minimum, not a local minimum, had been found.

[2] = In vivo Mdh activity in cell suspensions of recombinant E. coli (formaldehyde accumulating in supernatant); type: cell-based; conditions: E. coli cell suspension
Source text: The genes coding for Mdh and the Mdh activator protein Act were amplified from pET21a-plasmids harboring genes from B. methanolicus strains MGA3 (mdh-MGA3, mdh2-MGA3, mdh3-MGA3 and act-MGA3) and PB1 (mdh-PB1, mdh1-PB1 and mdh2-PB1). The genes were then cloned either into the pSEVA424 plasmid (mdh genes) or in the pSEVA131 plasmid (act gene). For cloning of mdh-MGA3, mdh-PB1, mdh1-PB1 and act-MGA3, EcoRI and HindIII restrictions sites were used, while mdh2-MGA3, mdh2-PB1 and mdh3-MGA3 were cloned by using EcoRI and PstI restriction sites. The resulting expression vectors were transformed into electrocompetent wt E. coli K-12 (BW25113) and into E. coli K-12 (BW25113) with a deleted frmA gene.
Expression Experiments For expression experiments, the cells were cultivated in either Luria-Bertani (LB) medium for in vitro assays or in M9 medium for in vivo assays both containing 20 μg/ml streptomycin for pSEVA424. When Act was co-expressed the medium was supplemented with 100 μg/ml ampicillin. Expression was induced when cells reached OD 0.5 (for in vitro tests) or OD 1 (for in vivo tests) by adding 0.1 mM IPTG (final concentration) for 6 hours. Cells were then harvested by centrifugation. For in vitro assays, crude cell extract was prepared by lysing the cells in a French press following ultracentrifugation. Alternatively, cells were resuspended in M9-medium without glucose for in vivo activity measurements. Enzyme Assays
In vivo measurements of Mdh activity: For determination of Mdh activity in cell suspensions, cells were harvested after IPTG induction, washed and resuspended in M9-medium without glucose and IPTG. OD600 was set to 1 for normalization. […] The assay was started by addition of 1 M methanol and subsequent measurement of accumulating formaldehyde in the supernatant resulting from the methanol dehydrogenase catalyzed oxidation of methanol. The calculated activities were based on the assumption that 1 l of an OD1 culture contains 0.3 g biomass of which 50% is protein.

[3] = In vitro methanol dehydrogenase activity in lysates of recombinant B. subtilis 168; type: biochemical; conditions: for methanol dehydrogenase activity on expression in B. subtilis (in words): 50° C., pH 9.5
Protocol: B. subtilis 168 cells were transformed with the act-MGA3, mdh-MGA3, mdh2-MGA3, and mdh3-MGA3 expression plasmids, and the analogous vectors coexpressing each of the methanol dehydrogenase genes with the act-MGA3 gene. Positive colonies were picked from the plate and the plasmid was isolated and checked by restriction for positive clones. Colonies were picked from plate and grown overnight at 37° C. (250 rpm) and diluted to OD600=0.1 in 20 ml LB containing chloramphenicol (5 μg/ml). After 3 hrs of growth at 37° C. (250 rpm), 500 μl 40% xylose were added to the culture to induce expression. The culture was grown for another 3 hrs and samples of 2 ml were taken. The sample was spun down for 2 min, 11.000×g and the supernatant was removed. The pellet was resuspended in 300 μl Birnboim A for B. subtilis (10 mM Tris-HCl pH 8.0; 20% sucrose; 50 mM NaCl; 0.25 mg/ml lysozyme; protease inhibitor) and incubated at 37° C. for 30 minutes. The samples were stored at −80° C. before use. In addition, we took advantage of recombinant E. coli cells constructed in the project expressing mdh-MGA3, mdh2-MGA3, mdh3-MGA3 and act-MGA3 from the pET21a plasmid in the in vitro assays.
The activities of the Mdh proteins were measured by following the formation of NADH spectrophoto-metrically. The reaction mixture contained: • 100 μl Glycine-KOH (pH 9.5) • 100 μl 5M Methanol (or 5M ethanol) • 5 μl 1M MgSO4 • 10 μl 50 mM NAD^+ • 10 μl sample • (10 μl E. coli act-pET21a lysate) • 775 μl H2O
The cuvets and reaction mixture without cell lysate were pre-incubated at 50° C. Formation of NADH was followed for 10 minutes at 340 nm at 50° C. The total activity was calculated by dividing the increase in absorption units per min by the extinction coefficient ([…]) and the total protein concentration in U/mg total protein. All assays were performed both by using methanol and ethanol as alternative substrates.

[4] = Methanol dehydrogenase assay of purified recombinant MDH proteins (NADH production at 340 nm); type: biochemical; conditions: for Vmax, variable substrate Methanol + Act / Vmax, variable substrate Methanol / Km: 45° C., pH 9.5; for Vmax, variable substrate Methanol: absence of Act
Protocol: as §1, §2

[5] = methanol 500 mM, read-out: Km, variable substrate NAD+

Row | Molecule | Vmax, variable substrate Formaldehyde [1] [U/mg] | Km [1] [µM] | In vivo activity ([2]; 37° C., +Act) [mU/mg] | In vivo activity ([2]; 37° C., −Act) [mU/mg] | In vivo activity ([2]; 42° C., +Act) [mU/mg] | In vivo activity ([2]; 42° C., −Act) [mU/mg] | methanol dehydrogenase activity on expression in B. subtilis (in words) [3] | ranking of activity in B. subtilis ([3]; act and mdh gene co-expressed from the same plasmid) | Vmax, variable substrate Methanol + Act ([4]; 20 μg MDH + 20 μg Act) [U/mg] | Vmax, variable substrate Methanol [4] [U/mg] | Km [4, 5] [µM] | change of Km,MeOH in the presence of Act (in words) ([4]; Act added vs. no Act) | ranking of activity in B. subtilis ([3]; Act supplied from E. coli lysates) | Km ([4]; 20 μg MDH + 20 μg Act, read-out: Km, variable substrate Methanol + Act) [µM] | reduction of Km,MeOH in the presence of Act ([4]; Act added vs. no Act) [fold]
1 | B1 | 1.5 | 5000 | 9 | 32 | 11.3 | 45 | expressed active methanol dehydrogenases | most active | 0.15 | 0.04 | 22 | remained essentially the same | – | – | –
2 | B2 | 1.4 | 1000 | 1 | 1 | 1 | 3 | expressed active methanol dehydrogenases | – | 0.5 | 0.08 | 14 | – | most active | 12000 | 17
3 | B3 | 5 | 15000 | 11 | 24 | 24 | 31 | expressed active methanol dehydrogenases | – | 0.45 | 0.09 | 40 | remained essentially the same | – | – | –
